Article PMC2809091, “Dissociation of the Octameric Enolase from S. Pyogenes - One Interface Stabilizes Another” (PLoS ONE, 2010)

Molecular target: the molecule itself
Assay: AUC; sedimentation velocity, 35,000 rpm, 15°C; 2.7 µM enolase (subunits) in TME buffer (50 mM Tris/HCl, 1 mM Mg(OAc)2, 0.1 mM EDTA, pH 7.4) without NaClO4; c(s) analysis (SEDFIT), mass also from DLS radius and DCDT+; octamer

B1: wild type octameric enolase from S. pyogenes (enzyme, UniProt P69949 1-435, looked up)
chain: MSIITDVYAREVLDSRGNPTLEVEVYTESGAFGRGMVPSGASTGEHEAVELRDGDKSRYLGLGTQKAVDNVNNIIAEAIIGYDVRDQQAIDRAMIALDGTPNKGKLGANAILGVSIAVARAAADYLEVPLYTYLGGFNTKVLPTPMMNIINGGSHSDAPIAFQEFMIMPVGAPTFKEGLRWGAEVFHALKKILKERGLVTAVGDEGGFAPKFEGTEDGVETILKAIEAAGYEAGENGIMIGFDCASSEFYDKERKVYDYTKFEGEGAAVRTSAEQVDYLEELVNKYPIITIEDGMDENDWDGWKVLTERLGKRVQLVGDDFFVTNTEYLARGIKENAANSILIKVNQIGTLTETFEAIEMAKEAGYTAVVSHRSGETEDSTIADIAVATNAGQIKTGSLSRTDRIAKYNQLLRIEDQLGEVAQYKGIKSFYNLKK
notes: enolase (EC 4.2.1.11) of Streptococcus pyogenes; no removal of the His tag is described; also called wild type enolase; wild type enzyme; source: E. coli BL21(DE3), pET-14b, purified (Ni-NTA, dialysis, (NH4)2SO4 precipitation)
- stoichiometry N: 8
